# Article PMC4465127
# Target: LIN-3^EGF (the purified EGF domain from LIN-3) (C. elegans)
# Assay: SPR; Biacore 3000; LIN-3 amine-coupled on CM5 chip, sLET-23 injected; steady state, single-site model; 10 mM Hepes pH 8.0, 150 mM NaCl, 3 mM EDTA, 0.005% P-20, room temperature
binder,measurement,value
LET-23 extracellular region (sLET-23) (domain or fragment) FGNSNAQLWKRCVSPQDCLCSGTTNGISRYGTGNILEDLETMYRGCRRVYGNLEITWIEANEIKKWRESTNSTVDPKNEDSPLKSINFFDNLEEIRGSLIIYRANIQKISFPRLRVIYGDEVFHDNALYIHKNDKVHEVVMRELRVIRNGSVTIQDNPKMCYIGDKIDWKELLYDPDVQKVETTNSHQHCYQNGKSMAKCHESCNDKCWGSGDNDCQRVYRSVCPKSCSQCFYSNSTSSYECCDSACLGGCTGHGPKNCIACSKYELDGICIETCPSRKIFNHKTGRLVFNPDGRYQNGNHCVKECPPELLIENDVCVRHCSDGHHYDATKDVRECEKCRSSSCPKICTVDGHLTNETLKNLEGCEQIDGHLIIEHAFTYEQLKVLETVKIVSEYITIVQQNFYDLKFLKNLQIIEGRKLHNVRWALAIYQCDDLEELSLNSLKLIKTGAVLIMKNHRLCYVSKIDWSSIITSKGKDNKPSLAIAENRDSKLCETEQRVCDKNCNKRGCWGKEPEDCLECKTWKSVGTCVEKCDTKGFLRNQTSMKCERCSPECETCNGLGELDCLTCRHKTLYNSDFGNRMECVHDCPVSHFPTQKNVCEKCHPTCYDNGCTGPDSNLGYGGCKQCKYAVKYENDTIFCLQSSGMNNVCVENDLPNYYISTYDTEGVIETHCEKCSISCKTCSSAGRNVVQNKCVCKHVEYQPNPSERICMDQCPVNSFMVPDTNNTVCKKCHHECDQNYHCANGQSTGCQKCKNFTVFKGDIAQCVSECPKNLPFSNPANGECLDYDIASRQRKTRM,Kd,2 to 4 µM
